Measurements published in patent publication US20200255533A1 (NUMAB THERAPEUTICS, published 2020).

Molecular target: human TNF (human, UniProt P01375 77-233)
Test: SPR, scFv

Chain of human TNF (P01375 77-233 limits assumed): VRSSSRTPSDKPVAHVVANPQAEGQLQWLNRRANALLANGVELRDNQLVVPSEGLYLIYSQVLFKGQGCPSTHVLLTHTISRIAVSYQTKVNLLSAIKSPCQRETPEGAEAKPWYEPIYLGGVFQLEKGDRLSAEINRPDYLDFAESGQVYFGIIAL

| Binder | Kd [nM] | koff [s⁻¹] | kon [M⁻¹ s⁻¹] |
| --- | --- | --- | --- |
| Vκ3/VH4 consensus λ-capped (TNF-specific scFv) (scFv, scFv) scFv: DIVLTQSPATLSLSPGERATLSCQASQSISDWLAWYQQKPGQAPRLLIYGASRLASGVPARFSGSGSGTDFTLTISSLEPEDFAVYYCQQGWSDSYVDNLFGGGTKLTVLGGGGGSGGGGSGGGGSGGGGSQVQLQESGPGLVKPSETLSLTCTVSGFSLSSGAMSWIRQPPGKGLEWIGVIISSGATYYASWAKGRVTISVDTSKNQFSLKLSSVTAADTAVYYCARGGPDDSNSMGTFDPWGQGTLVTVSS | 0.119 | 5.25e-05 | 440000 |
| Vκ3/VH4 consensus (T24K, T84S) λ-capped (TNF-specific scFv) (scFv, scFv; also called Vκ3/VH4mut) scFv: DIVLTQSPATLSLSPGERATLSCQASQSISDWLAWYQQKPGQAPRLLIYGASRLASGVPARFSGSGSGTDFTLTISSLEPEDFAVYYCQQGWSDSYVDNLFGGGTKLTVLGGGGGSGGGGSGGGGSGGGGSQVQLQESGPGLVKPSETLSLTCKVSGFSLSSGAMSWIRQPPGKGLEWIGVIISSGATYYASWAKGRVTISVDSSKNQFSLKLSSVTAADTAVYYCARGGPDDSNSMGTFDPWGQGTLVTVSS | 0.0793 | 3.09e-05 | 390000 |
| Vκ1/VH4 consensus λ-capped (TNF-specific scFv) (scFv, scFv; also called capped Vκ1/VH4 consensus molecule) scFv: DIQMTQSPSSLSASVGDRVTITCQASQSISDWLAWYQQKPGKAPKLLIYGASRLASGVPSRFSGSGSGTDFTLTISSLQPEDFATYYCQQGWSDSYVDNLFGGGTKLTVLGGGGGSGGGGSGGGGSGGGGSQVQLQESGPGLVKPSETLSLTCTVSGFSLSSGAMSWIRQPPGKGLEWIGVIISSGATYYASWAKGRVTISVDTSKNQFSLKLSSVTAADTAVYYCARGGPDDSNSMGTFDPWGQGTLVTVSS | 0.0533 | 3.36e-05 | 631000 |
| Vκ1/VH4 consensus (T24K, T84S) λ-capped (TNF-specific scFv) (scFv, scFv; also called Vκ1/VH4mut; mutant variant of Vκ1/VH4) scFv: DIQMTQSPSSLSASVGDRVTITCQASQSISDWLAWYQQKPGKAPKLLIYGASRLASGVPSRFSGSGSGTDFTLTISSLQPEDFATYYCQQGWSDSYVDNLFGGGTKLTVLGGGGGSGGGGSGGGGSGGGGSQVQLQESGPGLVKPSETLSLTCKVSGFSLSSGAMSWIRQPPGKGLEWIGVIISSGATYYASWAKGRVTISVDSSKNQFSLKLSSVTAADTAVYYCARGGPDDSNSMGTFDPWGQGTLVTVSS | 0.043 | 3.28e-05 | 764000 |
